Assay results as given in patent US8889130B2, “Treatment of osteoarthritis and pain” (Abbvie Inc., priority 2011, dated 2014).

B1: DVD2-Ig: DVD-Ig as DVD1-Ig but with linkers ADAAP (light chain) and AKTTPP (heavy chain) (antibody)
VH: MQLSGLTSEDSAMYFCVRFPTGNDYYAMDYWGQGTSVTVSSAKTTPPQIQLVQSGPELKKPGETVKISCKASGYTFRNYGMNWVKQAPGKDLKRMAWINTYTGESTYADDFKGRFAFSLETSASTAYLQINNLKNEDTATYFCARGIYYYGSSYAMDYWGQGTSVTVSS
VL: PVEADDAATYYCQQNNEDPFTFGSGTKLEIKRADAAPNIQMTQTTSSLSASLGDRVTISCRASQDISNCLNWYQQKPDGTVKLLIYYTSRLHSGVPSRFSGSGSGTDYSLTISNLEQEDIATYFCQQGKTLPYAFGGGTKLEINR
B2: DVD1-Ig: DVD-Ig binding hIL-1α and hIL-1β; VH/VL of 13F5.G5 fused directly to N-terminus of 3D12.E3 VH/VL, no linker (antibody)
VH: MQLSGLTSEDSAMYFCVRFPTGNDYYAMDYWGQGTSVTVSSQIQLVQSGPELKKPGETVKISCKASGYTFRNYGMNWVKQAPGKDLKRMAWINTYTGESTYADDFKGRFAFSLETSASTAYLQINNLKNEDTATYFCARGIYYYGSSYAMDYWGQGTSVTVSS
VL: PVEADDAATYYCQQNNEDPFTFGSGTKLEIKRNIQMTQTTSSLSASLGDRVTISCRASQDISNCLNWYQQKPDGTVKLLIYYTSRLHSGVPSRFSGSGSGTDYSLTISNLEQEDIATYFCQQGKTLPYAFGGGTKLEINRR
B3: 10G11: mouse anti-mouse IL-1β monoclonal antibody (clone 10G11) from IL-1α/β double KO mice (antibody, V domains shown)
VH: EVQLQQSGPELVKPGTSVKMSCKTSGYTFTSYVMHWVKQKPGQGLEWIGYIIPYNDNTKYNEKFKGKATLTSDKSSSTAYMELSSLTSEDSAVYYCARRNEYYGSSFFDYWGQGTTLTVSS
VL: DIQMTQSPASLSASVGETVTITCRGSGILHNYLVWYQQKQGKSPQLLVYSAKILADGVPSRFSGSGSGTQYSLKINSLQPEDFGSYYCQHFWSTPFTFGSGTKLEIKR
modifications: heavy chain variable domain of 10G11; light chain variable domain of 10G11
notes: mouse anti-mouse IL-1β monoclonal antibody (clone 10G11) from IL-1α/β double KO mice

Legend:
[1] = target: T1, hIL-1β (Homo sapiens, UniProt P01584); test: Tetravalent dual-specific antigen binding by Biacore (sequential antigen injection), hIL-1β; details: for Response Unit, 1st antigen hIL-1β: hIL-1β injected as 1st antigen on captured DVD-Ig; for Response Unit, 2nd antigen hIL-1β: hIL-1β injected as 2nd antigen after hIL-1α
T1 sequence (P01584 117-269): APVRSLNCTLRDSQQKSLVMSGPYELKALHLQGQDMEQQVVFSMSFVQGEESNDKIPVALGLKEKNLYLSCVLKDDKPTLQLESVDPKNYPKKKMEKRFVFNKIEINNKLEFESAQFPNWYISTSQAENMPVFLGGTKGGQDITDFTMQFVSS
Protocol: (§1) The kinetics of DVD-Ig molecules binding to rhIL1-α and rhIL1-β was determined by surface plasmon resonance-based measurements with a Biacore 3000 instrument (Biacore AB, Uppsala, Sweden) using HBS-EP (10 mM HEPES, pH 7.4, 150 mM NaCl, 3 mM EDTA, and 0.005% surfactant P20) at 25° C. All chemicals were obtained from Biacore AB (Uppsala, Sweden) or otherwise from a different source as described herein. Approximately, 5000 RU of goat anti-human IgG Fcγ fragment specific polyclonal antibody (Pierce Biotechnology Inc, Rockford, Ill.) diluted in 10 mM sodium acetate (pH 4.5) was directly immobilized across a CM5 research grade biosensor chip using a standard amine coupling kit according to manufacturer's instructions and procedures at […]. Unreacted moieties on the biosensor surface were blocked with ethanolamine. Modified carboxymethyl dextran surface in flowcell 2 and 4 was used as a reaction surface. Unmodified carboxymethyl dextran without goat anti-human IgG in flow cell 1 and 3 was used as the reference surface. For kinetic analysis, rate equations derived from the 1:1 Langmuir binding model were fitted simultaneously to association and dissociation phases of all ten injections (using global fit analysis) using the Bioevaluation 4.0.1 software. Purified DVD-Ig samples were diluted in HEPES-buffered saline for capture across goat anti-human IgG Fc specific reaction surfaces and injected over reaction matrices at a flow rate of […]. The association and dissociation rate constants, kon (M-1s-1) and koff (s-1) were determined under a continuous flow rate of […]. Rate constants were derived by making kinetic binding measurements at ten different antigen concentrations ranging from 1.25 to 1000 nM. The equilibrium dissociation constant (M) of the reaction between DVD-Ig molecule and rhIL1α/β was then calculated from the kinetic rate constants by the following formula: KD=koff/kon. Aliquots of rhIL1α/β samples were also simultaneously injected over a blank reference and reaction CM surface to record and subtract any nonspecific binding background to eliminate the majority of the refractive index change and injection noise. Surfaces were regenerated with two subsequent […] injections of 10 mM Glycine (pH 1.5) at a flow rate of […]. The anti-Fc antibody immobilized surfaces were completely regenerated and retained their full capture capacity over twelve cycles. The apparent stoichiometry of the captured DVD-Ig-rhIL1α/β complex was calculated under saturating binding conditions (steady-state equilibrium) using the following formula: […]
In addition, tetravalent dual-specific antigen binding of DVD-Ig binding protein was also analyzed by Biacore (Table 14). DVD-Ig binding protein was first captured via a goat anti-human Fc antibody on the Biacore sensor chip, and the first antigen was injected and a binding signal observed. As the DVD-Ig binding protein was saturated by the first antigen, the second antigen was then injected and the second signal observed. This was done either by first injecting IL-1β then IL-1α or by first injecting IL-1α followed by IL-1β for DVD2-Ig binding protein. In either sequence, a dual-binding activity was detected. Similar results were obtained for DVD1-Ig binding protein. Thus, each DVD-Ig binding protein was able to bind both antigens simultaneously as a dual-specific tetravalent molecule. […] Upon the injection of the second antigen, while DVD-Ig binding protein was already occupied by the first antigen, the stoichiometry of both DVD-Igs binding protein to the second antigen (i.e., hIL-1α or hIL-1β was between 1.0 and 1.3. Thus, DVD-Ig binding protein was able to bind two IL-1α and two IL-β molecules. DVD-Ig binding protein was first captured via a goat anti-human Fc antibody on the Biacore sensor chip, and the first antigen was injected and a binding signal observed, followed by the injection of the second antigen.

[2] = target: T1, hIL-1β; test: Surface plasmon resonance (Biacore) binding kinetics and affinity to hIL-1β; details: for koff / kon / Kd / Stoichiometry: antigen hIL-1β; for Kd: KD=koff/kon; for Stoichiometry: saturating binding conditions
Protocol: as §1

[3] = test system: male DBA-1 mice; test: Collagen-induced arthritis mouse model (rheumatoid arthritis); type: in vivo; details: therapeutic mode; 1-3 mg/kg intraperitoneally every other day after disease onset
Protocol: The therapeutic effects of anti-IL-1α, anti-IL-1β, combined anti-IL-1α/anti-IL-1β, and murine IL-1α/β DVD4-Ig, were evaluated in a collagen-induced arthritis mouse model well known in the art. Briefly, male DBA-1 mice were immunized with bovine type II collagen in CFA at the base of the tail. The mice were boosted with Zymosan intraperitoneally (i.p) at day 21. After disease onset at day 24-27, mice were selected and divided into separate groups of 10 mice each. […] To neutralize IL-1, mice were injected every other day with 1-3 mg/kg of anti-IL-1α mAb, anti-IL-1βmAb, combination of anti-IL-1α and anti-IL-1β mAbs, or murine IL-1α/β DVD4-Ig intraperitoneally. Mice were carefully examined three times a week for the visual appearance of arthritis in peripheral joints, and scores for disease activity determined.

[4] = hIL-1β injected as 2nd antigen, DVD-Ig already saturated with hIL-1α

Row | Molecule | Response Unit, 1st antigen hIL-1β [1] [Response Unit] | Response Unit, 2nd antigen hIL-1β [1] | Stoichiometry hIL-1β:DVD-Ig [1, 4] | binding affinity to hIL-1β, fold higher than that of DVD1-Ig [2] [fold] | koff [2] [s⁻¹] | kon [2] [M⁻¹ s⁻¹] | Kd [2] [nM] | Stoichiometry [2] | Stoichiometry hIL-1β:DVD-Ig ([1]; hIL-1β injected as 1st antigen) | reduction in mean arthritis score compared to control group [3] [%]
1 | B1 | 159 | hIL-1β: 137 Response Unit | 1.3 | 3 | 0.00095 | 1.19e+06 | 0.798 | 1.8 | – | –
2 | B2 | 141 | hIL-1β: 75 Response Unit | 1.0 | – | 0.00159 | 609000 | 2.6 | 1.5 | 1.5 | –
3 | B3 | – | – | – | – | – | – | – | – | – | 24
